Laboratory results published in the RNAGym collection of RNA variant scans (doi:10.7554/elife.90254).

B1: LINE1-full (parent)
chain: UACGUAGGUGGUUUUCCCCUGAUAGUGCUAAGGGGGCCUGGAAGUUUGGACUGGGCAGAGCUCAACACAGCGUGGCAAAGUGGCUGUGGCUAGACUGCCUCUCUGGAUUCCUCGUCACUCAGCAGGGCAUCUCUGAGAGAAAUGCC

Variants of: B1
Experiment: self-cleavage, relative activity (ratio to wild type); higher = more cleavage; in vitro, sequencing; the parent is a self-cleaving ribozyme

Row | Variant | self-cleavage
1 | A30G U130A | 1.15
2 | A30G U132G | 1.93
3 | A30G U143A | 0.93
4 | A30G U143C | 1.06
5 | A30U A31G | 1.23
6 | A30U A31U | 1.3
7 | A30U A42G | 0.99
8 | A30U A43C | 1.57
9 | A30U A43U | 0.58
10 | A30U A50G | 2.04
11 | A30U A57U | 0.13
12 | A30U A65C | 0.1
13 | A30U A65G | 0.06
14 | A30U A69U | 0.1
15 | A30U A77G | 1.25
16 | A30U A79C | 1.19
17 | A30U A92G | 0.11
18 | A30U A94G | 0.55
19 | A30U A107G | 1.28
20 | A30U A117G | 2.32
21 | A30U A124C | 1.05
22 | A30U A136G | 1.4
23 | A30U A141G | 0.87
24 | A30U C56A | 0.09

Row | Variant | self-cleavage
25 | A30U C90G | 0.09
26 | A30U C101U | 1.35
27 | A30U G32A | 0.89
28 | A30U G35A | 1.07
29 | A30U G48U | 0.71
30 | A30U G58A | 0.18
31 | A30U G82A | 1.57
32 | A30U G125U | 1.17
33 | A30U G144A | 0.75
34 | A30U U45G | 0.74
35 | A30U U46C | 1.12
36 | A30U U46G | 1.14
37 | A30U U47A | 1.15
38 | A30U U62C | 0.07
39 | A30U U87C | 0.23
40 | A30U U91C | 0.56
41 | A30U U100A | 0.9
42 | A30U U104A | 1.93
43 | A30U U104C | 1.31
44 | A30U U108C | 0.41
45 | A30U U112C | 1.08
46 | A30U U130C | 1.05
47 | A30U U132A | 1.22
48 | A30U U132C | 1.07

Row | Variant | self-cleavage
49 | A30U U134C | 1.22
50 | A30U U143A | 0.77
51 | A31C | 1.43
52 | A31C A78G | 1.1
53 | A31C A142G | 0.53
54 | A31C C71A | 0.19
55 | A31C U39C | 1.19
56 | A31C U45G | 0
57 | A31C U85C | 0.54
58 | A31C U100C | 0.92
59 | A31C U104A | 2.67
60 | A31C U134C | 1
61 | A31G | 1.11
62 | A31G A42G | 0.96
63 | A31G A43G | 0.98
64 | A31G A59C | 1.53
65 | A31G A59G | 0.16
66 | A31G A59U | 0.42
67 | A31G A64U | 0.48
68 | A31G A65G | 0
69 | A31G A67G | 0.5
70 | A31G A69U | 0.12
71 | A31G A77U | 0.86
72 | A31G A78G | 0.96

Row | Variant | self-cleavage
73 | A31G A79G | 1.23
74 | A31G A92U | 0.91
75 | A31G A117G | 1.84
76 | A31G A117U | 1
77 | A31G A121G | 1.24
78 | A31G A124U | 1.3
79 | A31G A129U | 0.84
80 | A31G A138G | 0.86
81 | A31G A141G | 1.1
82 | A31G A142G | 1.17
83 | A31G C98A | 0
84 | A31G C110U | 0.51
85 | A31G C113U | 1.03
86 | A31G C123U | 1.02
87 | A31G C145G | 1.63
88 | A31G G35C | 1.15
89 | A31G G72A | 0.77
90 | A31G G82A | 2.09
91 | A31G G114A | 1.09
92 | A31G G125U | 0.96
93 | A31G G135A | 1.09
94 | A31G G139A | 1.19
95 | A31G G139U | 1.67
96 | A31G U39A | 0.49

Row | Variant | self-cleavage
97 | A31G U39G | 1.37
98 | A31G U46C | 1.67
99 | A31G U47A | 0.94
100 | A31G U47C | 0.79
101 | A31G U73A | 0.79
102 | A31G U73C | 0.77
103 | A31G U81A | 0.66
104 | A31G U81C | 0.69
105 | A31G U85A | 0.11
106 | A31G U85C | 0.33
107 | A31G U87C | 0.22
108 | A31G U91A | 0.3
109 | A31G U96A | 0.11
110 | A31G U96C | 0.16
111 | A31G U100C | 1.29
112 | A31G U102C | 0.35
113 | A31G U104A | 0.48
114 | A31G U108C | 1.26
115 | A31G U109C | 0.79
116 | A31G U112C | 1.3
117 | A31G U119A | 1.39
118 | A31G U119C | 1.94
119 | A31G U130G | 1.84
120 | A31G U132C | 0.85

Row | Variant | self-cleavage
121 | A31G U134A | 0.45
122 | A31G U134C | 1.53
123 | A31G U143C | 1.04
124 | A31U | 1.03
125 | A31U A43G | 0.9
126 | A31U A50G | 0.16
127 | A31U A57G | 1
128 | A31U A59G | 0.14
129 | A31U A59U | 0.39
130 | A31U A64G | 0.2
131 | A31U A67G | 0.41
132 | A31U A77G | 1.39
133 | A31U A94G | 0.36
134 | A31U A107G | 1.28
135 | A31U A121G | 1
136 | A31U A121U | 0.51
137 | A31U A124G | 1.09
138 | A31U A124U | 1.42
139 | A31U A129U | 0.33
140 | A31U A136U | 0.55
141 | A31U A138U | 1.4
142 | A31U C146A | 0.88
143 | A31U C146U | 0.94
144 | A31U G33C | 0.81

Row | Variant | self-cleavage
145 | A31U G58A | 0.05
146 | A31U G86A | 0.05
147 | A31U G88U | 0.15
148 | A31U G126U | 0.79
149 | A31U U39C | 0.73
150 | A31U U39G | 0.93
151 | A31U U45G | 1.5
152 | A31U U46G | 1.67
153 | A31U U47C | 1.08
154 | A31U U52A | 1.73
155 | A31U U52C | 0.87
156 | A31U U62C | 0.12
157 | A31U U73A | 1.33
158 | A31U U81A | 1.57
159 | A31U U85G | 0.15
160 | A31U U87A | 0.14
161 | A31U U96A | 0.07
162 | A31U U96C | 0.23
163 | A31U U104A | 1.15
164 | A31U U109A | 1.69
165 | A31U U109C | 1.17
166 | A31U U112C | 1.27
167 | A31U U115C | 1.32
